From patent US20200024330A1

Experiments:
[1] = molecular target: WT JR-FL gp120 (HIV-1 (isolate JR-FL)); experiment: ELISA on coated gp120; EC50 by nonlinear regression
[2] = molecular target: JR-FL gp120 ΔV1/ΔV2 (HIV-1 (isolate JR-FL)); experiment: as above
[3] = molecular target: HIV-1 JR-CSF Env P313A (HIV-1 JR-CSF) (UniProt P20871); experiment: cell-based or functional assay
[4] = molecular target: HIV-1 JR-CSF Env N302A (HIV-1 JR-CSF) (UniProt P20871); experiment: cell-based or functional assay
[5] = molecular target: HIV-1 Env of isolate JR-CSF (HIV-1) (UniProt P20871); experiment: cell-based or functional assay
[6] = molecular target: Env of the clade F HIV-1 pseudoviruses of the cross-clade 162-pseudovirus panel (n = 15); experiment: cell-based or functional assay
[7] = molecular target: HIV-1 JR-CSF Env D325A (HIV-1 isolate JR-CSF) (UniProt P20871); experiment: cell-based or functional assay
[8] = molecular target: HIV-1 JR-CSF Env N339A (HIV-1 isolate JR-CSF) (UniProt P20871); experiment: cell-based or functional assay
[9] = molecular target: HIV-1 JR-CSF Env T388A (HIV-1 (isolate JR-CSF)) (UniProt P20871); experiment: cell-based or functional assay
[10] = molecular target: HIV-1 JR-CSF Env T303A (HIV-1 JR-CSF) (UniProt P20871); experiment: cell-based or functional assay
[11] = molecular target: HIV-1 JR-CSF Env S199A (HIV-1 JR-CSF) (UniProt P20871); experiment: cell-based or functional assay
[12] = molecular target: HIV-1 Env of isolate MGRM-C-026 (HIV-1); experiment: cell-based or functional assay
[13] = molecular target: Env of the clade A HIV-1 pseudoviruses of the cross-clade 162-pseudovirus panel (n = 26); experiment: cell-based or functional assay
[14] = molecular target: Env of the clade AG HIV-1 pseudoviruses of the cross-clade 162-pseudovirus panel (n = 10); experiment: cell-based or functional assay
[15] = molecular target: HIV-1 JR-CSF Env S306A (HIV-1 JR-CSF) (UniProt P20871); experiment: cell-based or functional assay
[16] = molecular target: HIV-1 JR-CSF Env T413A (HIV-1 (isolate JR-CSF)) (UniProt P20871); experiment: cell-based or functional assay
[17] = molecular target: Env of the clade G HIV-1 pseudoviruses of the cross-clade 162-pseudovirus panel (n = 15); experiment: cell-based or functional assay
[18] = molecular target: HIV-1 JR-CSF Env K421A (HIV-1 (isolate JR-CSF)) (UniProt P20871); experiment: cell-based or functional assay
[19] = molecular target: Env of all HIV-1 pseudoviruses of the cross-clade 162-pseudovirus panel (n = 162); experiment: cell-based or functional assay
[20] = molecular target: HIV-1 JR-CSF Env N241A (HIV-1 JR-CSF) (UniProt P20871); experiment: cell-based or functional assay
[21] = molecular target: HIV-1 JR-CSF Env N262A (HIV-1 JR-CSF) (UniProt P20871); experiment: cell-based or functional assay
[22] = molecular target: HIV-1 Env of isolate 92TH021 (HIV-1); experiment: cell-based or functional assay
[23] = molecular target: HIV-1 JR-CSF Env N301A (HIV-1 JR-CSF) (UniProt P20871); experiment: cell-based or functional assay
[24] = molecular target: HIV-1 JR-CSF Env N295A (HIV-1 JR-CSF) (UniProt P20871); experiment: cell-based or functional assay
[25] = molecular target: HIV-1 JR-CSF Env I424A (HIV-1 (isolate JR-CSF)) (UniProt P20871); experiment: cell-based or functional assay
[26] = molecular target: HIV-1 JR-CSF Env N392Q (HIV-1 (isolate JR-CSF)) (UniProt P20871); experiment: cell-based or functional assay
[27] = molecular target: HIV-1 JR-CSF Env T320A (HIV-1 isolate JR-CSF) (UniProt P20871); experiment: cell-based or functional assay
[28] = molecular target: HIV-1 JR-CSF Env I323A (HIV-1 isolate JR-CSF) (UniProt P20871); experiment: cell-based or functional assay
[29] = molecular target: HIV-1 JR-CSF Env E321aA (HIV-1 isolate JR-CSF) (UniProt P20871); experiment: cell-based or functional assay
[30] = molecular target: HIV-1 JR-CSF Env N386A (HIV-1 isolate JR-CSF) (UniProt P20871); experiment: cell-based or functional assay
[31] = molecular target: HIV-1 JR-CSF Env N276A (HIV-1 JR-CSF) (UniProt P20871); experiment: cell-based or functional assay
[32] = molecular target: HIV-1 JR-CSF Env P299A (HIV-1 JR-CSF) (UniProt P20871); experiment: cell-based or functional assay
[33] = molecular target: HIV-1 JR-CSF Env N332A (HIV-1 isolate JR-CSF) (UniProt P20871); experiment: cell-based or functional assay
[34] = molecular target: HIV-1 JR-CSF Env K343A (HIV-1 isolate JR-CSF) (UniProt P20871); experiment: cell-based or functional assay
[35] = molecular target: HIV-1 JR-CSF Env R419A (HIV-1 (isolate JR-CSF)) (UniProt P20871); experiment: cell-based or functional assay
[36] = molecular target: HIV-1 JR-CSF Env F317A (HIV-1 isolate JR-CSF) (UniProt P20871); experiment: cell-based or functional assay
[37] = molecular target: HIV-1 JR-CSF Env T394A (HIV-1 (isolate JR-CSF)) (UniProt P20871); experiment: cell-based or functional assay
[38] = molecular target: HIV-1 JR-CSF Env I420A (HIV-1 (isolate JR-CSF)) (UniProt P20871); experiment: cell-based or functional assay
[39] = molecular target: HIV-1 JR-CSF Env T297A (HIV-1 JR-CSF) (UniProt P20871); experiment: cell-based or functional assay

B1: PGT-123 (antibody, V domains shown)
VH: QLHLQESGPGLVKPPETLSLTCSVSGASINDAYWSWIRQSPGKRPEWVGYVHHSGDTNYNPSLKRRVTFSLDTAKNEVSLKLVDLTAADSATYFCARALHGKRIYGIVALGELFTYFYMDVWGKGTAVTVSS
VL: SSMSVSPGETAKISCGKESIGSRAVQWYQQKPGQPPSLIIYNNQDRPAGVPERFSASPDFRPGTTATLTITNVDAEDEADYYCHIYDARGGTNWVFDRGTTLTVL
- EC50 [1]: 0.2 µg/mL
- EC50 [2]: 0.3 µg/mL
- Fold IC50 increase relative to wild-type [3]: 0.2 fold
- Fold IC50 increase relative to wild-type [4]: 1.3 fold
- Primary Neutralization Index (B cell culture well 4858 P8) [5]: 1.6
- Median IC50 against viruses neutralized with an IC50 <50 µg/ml [6]: 0.09 µg/mL
- Fold IC50 increase relative to wild-type [7]: 64 fold
- Fold IC50 increase relative to wild-type [8]: 0.8 fold
- Fold IC50 increase relative to wild-type [9]: 0.2 fold
- Fold IC50 increase relative to wild-type [10]: 1.1 fold
- Fold IC50 increase relative to wild-type [11]: 1.1 fold
- Primary Neutralization Index (B cell culture well 4858 P8) [12]: 33.8
- Median IC50 against viruses neutralized with an IC50 <50 µg/ml [13]: 0.02 µg/mL
- Median IC50 against viruses neutralized with an IC50 <50 µg/ml [14]: 0.61 µg/mL
- Fold IC50 increase relative to wild-type [15]: 0.5 fold
- Fold IC50 increase relative to wild-type [16]: 0.4 fold
- Median IC50 against viruses neutralized with an IC50 <50 µg/ml [17]: 0.04 µg/mL
- Fold IC50 increase relative to wild-type [18]: 0.9 fold
- Median IC50 against viruses neutralized with an IC50 <50 µg/ml [19]: 0.03 µg/mL
- Fold IC50 increase relative to wild-type [20]: 0.8 fold
- Fold IC50 increase relative to wild-type [21]: 0.5 fold
- IC50 (µg/mL), pseudovirus neutralization [22]: > 50 µg/mL
- Fold IC50 increase relative to wild-type [23]: 1 fold
- Fold IC50 increase relative to wild-type [24]: 1.2 fold
- Fold IC50 increase relative to wild-type [25]: 0.5 fold
- Fold IC50 increase relative to wild-type [26]: 1 fold
- Fold IC50 increase relative to wild-type [27]: 0.7 fold
- Fold IC50 increase relative to wild-type [28]: 1 fold
- Fold IC50 increase relative to wild-type [29]: 0.6 fold
- Fold IC50 increase relative to wild-type [30]: 1.4 fold
- Fold IC50 increase relative to wild-type [31]: 1.1 fold
- Fold IC50 increase relative to wild-type [32]: 0.7 fold
- Fold IC50 increase relative to wild-type [33]: > 200 fold
- Fold IC50 increase relative to wild-type [34]: 0.3 fold
- Fold IC50 increase relative to wild-type [35]: 0.7 fold
- Fold IC50 increase relative to wild-type [36]: 3.1 fold
- Fold IC50 increase relative to wild-type [37]: 0.4 fold
- Fold IC50 increase relative to wild-type [38]: 3.2 fold
- Fold IC50 increase relative to wild-type [39]: 0.3 fold

B2: PGT-135 (antibody, V domains shown)
VH: QLQMQESGPGLVKPSETLSLSCTVSGDSIRGGEWGDKDYHWGWVRHSAGKGLEWIGSIHWRGTTHYKESLRRRVSMSIDTSRNWFSLRLASVTAADTAVYFCARHRHHDVFMLVPIAGWFDVWGPGVQVTVSS
VL: EIVMTQSPDTLSVSPGETVTLSCRASQNINKNLAWYQYKPGQSPRLVIFETYSKIAAFPARFVASGSGTEFTLTINNMQSEDVAVYYCQQYEEWPRTFGQGTKVDIK
- EC50 [1]: 0.1 µg/mL
- EC50 [2]: 0.1 µg/mL
- Fold IC50 increase relative to wild-type [3]: 0.5 fold
- Fold IC50 increase relative to wild-type [4]: 0.8 fold
- Primary Neutralization Index (B cell culture well 5343 B8) [5]: 1.8
- Primary Neutralization Index (B cell culture well 5344 E16) [5]: 1.5
- Median IC50 against viruses neutralized with an IC50 <50 µg/ml [6]: 0.21 µg/mL
- Fold IC50 increase relative to wild-type [7]: 0.5 fold
- Fold IC50 increase relative to wild-type [8]: 1.2 fold
- Fold IC50 increase relative to wild-type [9]: 0.1 fold
- Fold IC50 increase relative to wild-type [10]: 0.3 fold
- Fold IC50 increase relative to wild-type [11]: 0.3 fold
- Primary Neutralization Index (B cell culture well 5343 B8) [12]: 6.5
- Primary Neutralization Index (B cell culture well 5344 E16) [12]: 3.6
- Median IC50 against viruses neutralized with an IC50 <50 µg/ml [13]: 0.64 µg/mL
- Median IC50 against viruses neutralized with an IC50 <50 µg/ml [14]: 27.4 µg/mL
- Fold IC50 increase relative to wild-type [15]: 0.4 fold
- Fold IC50 increase relative to wild-type [16]: 0.3 fold
- Median IC50 against viruses neutralized with an IC50 <50 µg/ml [17]: 0.14 µg/mL
- Fold IC50 increase relative to wild-type [18]: 0.3 fold
- Median IC50 against viruses neutralized with an IC50 <50 µg/ml [19]: 0.17 µg/mL
- Fold IC50 increase relative to wild-type [20]: 0.1 fold
- Fold IC50 increase relative to wild-type [21]: 2.1 fold
- Fold IC50 increase relative to wild-type [23]: 0.5 fold
- Fold IC50 increase relative to wild-type [24]: > 18 fold
- Fold IC50 increase relative to wild-type [25]: 0.1 fold
- Fold IC50 increase relative to wild-type [26]: > 250 fold
- Fold IC50 increase relative to wild-type [27]: 0.5 fold
- Fold IC50 increase relative to wild-type [28]: 1.5 fold
- Fold IC50 increase relative to wild-type [29]: 0.8 fold
- Fold IC50 increase relative to wild-type [30]: 0.3 fold
- Fold IC50 increase relative to wild-type [31]: 2.5 fold
- Fold IC50 increase relative to wild-type [32]: 0.36 fold
- Fold IC50 increase relative to wild-type [33]: > 250 fold
- Fold IC50 increase relative to wild-type [34]: 1.1 fold
- Fold IC50 increase relative to wild-type [35]: 3.9 fold
- Fold IC50 increase relative to wild-type [36]: 0.5 fold
- Fold IC50 increase relative to wild-type [37]: > 75 fold
- Fold IC50 increase relative to wild-type [38]: 1.4 fold
- Fold IC50 increase relative to wild-type [39]: > 30 fold
